Paper PMC5007650, “Crystal structure of the two-subunit tRNA m^1A58 methyltransferase TRM6-TRM61 from Saccharomyces cerevisiae” (Scientific Reports, 2016)

T1: TRM6 from Saccharomyces cerevisiae (S. cerevisiae, UniProt P41814 1-478)
T1 construct: TRM6, non-catalytic subunit of the tRNA m1A58 methyltransferase, S. cerevisiae, full length; A selenomethionine derivative was used for phasing only; also called TRM6 subunit; source: bacteria, expression plasmid pETDuet-TRM6-TRM61, purified as the TRM6-TRM61 complex (Ni2+-NTA, Superdex 200)
T1 sequence (looked up): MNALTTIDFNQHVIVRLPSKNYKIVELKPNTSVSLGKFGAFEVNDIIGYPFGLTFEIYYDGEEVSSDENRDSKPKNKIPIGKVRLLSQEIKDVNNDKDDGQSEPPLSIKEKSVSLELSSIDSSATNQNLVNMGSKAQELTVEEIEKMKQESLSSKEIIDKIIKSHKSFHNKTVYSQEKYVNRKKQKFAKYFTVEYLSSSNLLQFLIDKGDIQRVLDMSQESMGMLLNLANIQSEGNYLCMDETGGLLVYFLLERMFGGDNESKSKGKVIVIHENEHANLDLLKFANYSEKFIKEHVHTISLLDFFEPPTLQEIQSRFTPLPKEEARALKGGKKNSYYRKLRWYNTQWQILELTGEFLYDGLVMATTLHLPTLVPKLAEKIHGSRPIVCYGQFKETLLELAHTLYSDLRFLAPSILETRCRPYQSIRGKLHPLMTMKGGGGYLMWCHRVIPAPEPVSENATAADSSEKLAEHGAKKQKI

B1: TRM61 from Saccharomyces cerevisiae (enzyme, S. cerevisiae, UniProt P46959 1-383, looked up)
chain: MSTNCFSGYKDLIKEGDLTLIWVSRDNIKPVRMHSEEVFNTRYGSFPHKDIIGKPYGSQIAIRTKGSNKFAFVHVLQPTPELWTLSLPHRTQIVYTPDSSYIMQRLNCSPHSRVIEAGTGSGSFSHAFARSVGHLFSFEFHHIRYEQALEEFKEHGLIDDNVTITHRDVCQGGFLIKKGDTTSYEFGNNETAASLNANVVFLDLPAPWDAIPHLDSVISVDEKVGLCCFSPCIEQVDKTLDVLEKYGWTDVEMVEIQGRQYESRRQMVRSLNDALERLRDIKRHKLQGVERRKRMFNNTIDSNDEKVGKRNEDGVPLTEKAKFNPFGKGSRIKEGDSNYKWKEVTKMEAEIKSHTSYLTFAFKVVNRSRDDEKVNEILRSTEK
notes: TRM61, catalytic subunit of the tRNA m1A58 methyltransferase, S. cerevisiae, full length; also called TRM61 subunit; catalytic subunit; source: bacteria, expression plasmid pETDuet-TRM6-TRM61, purified as the TRM6-TRM61 complex (Ni2+-NTA, Superdex 200)
B2: TRM6-TRM61 heterodimer from Saccharomyces cerevisiae (complex, S. cerevisiae)
chain 1: MNALTTIDFNQHVIVRLPSKNYKIVELKPNTSVSLGKFGAFEVNDIIGYPFGLTFEIYYDGEEVSSDENRDSKPKNKIPIGKVRLLSQEIKDVNNDKDDGQSEPPLSIKEKSVSLELSSIDSSATNQNLVNMGSKAQELTVEEIEKMKQESLSSKEIIDKIIKSHKSFHNKTVYSQEKYVNRKKQKFAKYFTVEYLSSSNLLQFLIDKGDIQRVLDMSQESMGMLLNLANIQSEGNYLCMDETGGLLVYFLLERMFGGDNESKSKGKVIVIHENEHANLDLLKFANYSEKFIKEHVHTISLLDFFEPPTLQEIQSRFTPLPKEEARALKGGKKNSYYRKLRWYNTQWQILELTGEFLYDGLVMATTLHLPTLVPKLAEKIHGSRPIVCYGQFKETLLELAHTLYSDLRFLAPSILETRCRPYQSIRGKLHPLMTMKGGGGYLMWCHRVIPAPEPVSENATAADSSEKLAEHGAKKQKI
chain 2: MSTNCFSGYKDLIKEGDLTLIWVSRDNIKPVRMHSEEVFNTRYGSFPHKDIIGKPYGSQIAIRTKGSNKFAFVHVLQPTPELWTLSLPHRTQIVYTPDSSYIMQRLNCSPHSRVIEAGTGSGSFSHAFARSVGHLFSFEFHHIRYEQALEEFKEHGLIDDNVTITHRDVCQGGFLIKKGDTTSYEFGNNETAASLNANVVFLDLPAPWDAIPHLDSVISVDEKVGLCCFSPCIEQVDKTLDVLEKYGWTDVEMVEIQGRQYESRRQMVRSLNDALERLRDIKRHKLQGVERRKRMFNNTIDSNDEKVGKRNEDGVPLTEKAKFNPFGKGSRIKEGDSNYKWKEVTKMEAEIKSHTSYLTFAFKVVNRSRDDEKVNEILRSTEK
notes: TRM6, S. cerevisiae, full length; as the chain of m1; TRM61, S. cerevisiae, full length; as the chain of m2; 1:1 heterodimer of TRM6 and TRM61 (the asymmetric unit of the crystal); two of them form the 2:2 heterotetramer; also called TRM6-TRM61 holoenzyme; TRM6-TRM61 complex; source: bacteria, expression plasmid pETDuet-TRM6-TRM61, purified (Ni2+-NTA, Superdex 200)

How the values were obtained:
[1] = target: T1, TRM6 from Saccharomyces cerevisiae; experiment: crystal structure; sitting-drop vapour diffusion at 293 K, 0.1 M HEPES pH 7.5, 2% MPD, 10% PEG 6000; apo TRM6-TRM61 and TRM6-TRM61 with SAM, each at 2.2 Å; heterotetramer from symmetry-related molecules; conditions: both partners purified
[2] = target: the molecule itself; experiment: as above

| Binder | binding result [1] | binding result [2] |
| --- | --- | --- |
| B1 | binds | – |
| B2 | – | binds |
